The experiment addresses T1, recombinant ApoE3 (human, UniProt P02649 19-317).
T1 construct: Apolipoprotein E, isoform ApoE3; also called apolipoprotein E3; source: bought: BioVision
Nature of the experiment: AlphaScreen or HTRF; AlphaLISA: ApoE2, 3 or 4 (0-100 nM) with biotinylated CLCF1 (10 nM) in PBS 0.1% BSA, rat anti-ApoE IgG (3 nM), anti-rat IgG acceptor beads, streptavidin donor beads; also with ApoE (30 nM) preincubated with DMPC (0-1000 uM) 1 h at 37 °C. To be noted: both partners purified.

T1 sequence (P02649 19-317): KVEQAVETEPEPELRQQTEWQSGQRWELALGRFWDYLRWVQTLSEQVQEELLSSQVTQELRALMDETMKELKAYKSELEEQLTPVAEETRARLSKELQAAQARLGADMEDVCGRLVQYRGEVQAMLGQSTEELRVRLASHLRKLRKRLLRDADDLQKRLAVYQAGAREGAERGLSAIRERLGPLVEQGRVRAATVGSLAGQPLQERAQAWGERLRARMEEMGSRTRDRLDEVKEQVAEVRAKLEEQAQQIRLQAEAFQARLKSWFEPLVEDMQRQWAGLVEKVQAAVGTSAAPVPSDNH

B1: biotinylated human CLCF1 (cardiotrophin-like cytokine factor 1) (ligand, UniProt Q9UBD9 28-225, looked up)
chain: LNRTGDPGPGPSIQKTYDLTRYLEHQLRSLAGTYLNYLGPPFNEPDFNPPRLGAETLPRATVDLEVWRSLNDKLRLTQNYEAYSHLLCYLRGLNRQAATAELRRSLAHFCTSLQGLLGSIAGVMAALGYPLPQPLPGTEPTWTPGPAHSDFLQKMDDFWLLKELQTWLWRSAKDFNRLKKKMQPPAAAVTLHLGAHGF
modifications: biotin on the Avitag (BirA biotin-ligase)
notes: Cardiotrophin-like cytokine factor 1 (CLCF1), human, mature protein, codon optimized synthetic cDNA in pET24d; also called biotinylated hCLCF1; hCLC biot
In the case of B1, the binding result was “binds”.

The values are drawn from publication PMC5838168, “Effect of human very low-density lipoproteins on cardiotrophin-like cytokine factor 1 (CLCF1) activity” (Scientific Reports, 2018).
